Reference: patent US8114968 (DYAX, dated 2012)
Substitutions are numbered along the chain they refer to.

B1: 539B-M0063-B01 (Fab, V domains shown)
VH: EVQLLESGGGLVQPGGSLRLSCAASGFTFSWYWMGWVRQAPGKGLEWVSSISPSGGYTFYADSVKGRFTISRDNSKNTLYLQMNSLRAEDTAVYYCAKDIRGAYSSGLFDYWGRGTLVTVSS
VL: DIQMTQSPSSLSASVGDRVTITCRANQSIYTYLNWYQQKPGKAPELLIYAASSLQSGVPSRFSGSGSGTDFTLTISSLQPEDFATYYCQQAGIFGQGTKLEIK
B2: 539B-M0071-D09 (Fab, V domains shown)
VH: B1 VH with W31P, G35H, S50G, P53S, Y57D, F59L
VL: B1 VL
B3: 539B-M0063-B11 (Fab, V domains shown)
VH: B1 VH with W31P, G35H, S50G, S52G, Y57L
VL: B1 VL
B4: 539B-M0067-B06 (Fab, V domains shown)
VH: B1 VH with G35H, S50G, S52V, P53S, Y57T, F59I
VL: B1 VL
B5: 539B-M0063-G01 (Fab, V domains shown)
VH: B1 VH with G35V, S52G, Y57D, F59Y
VL: B1 VL
B6: 539B-M0067-F06 (Fab, V domains shown)
VH: B1 VH with W33N, G35S, S50R, Y57D, F59G
VL: B1 VL
B7: 539B-M0069-C02 (Fab, V domains shown)
VH: B1 VH with W31Y, W33N, G35H, S50G, S52G, Y57G, F59L
VL: B1 VL
B8: 539B-M0071-A01 (Fab, V domains shown)
VH: B1 VH with W31E, G35T, S50G, Y57M
VL: B1 VL
B9: 539B-M0071-H03 (Fab, V domains shown)
VH: B1 VH with W31P, G35H, S50G, S52G, Y57P, V64I
VL: B1 VL
B10: 539B-M0065-H05 (Fab, V domains shown)
VH: B1 VH with W31Y, W33G, S50V, P53S, Y57F
VL: B1 VL
B11: 539B-M0063-C07 (Fab, V domains shown)
VH: B1 VH with W31P, G35S, S50G, Y57I
VL: B1 VL
B12: 539B-M0011-H11 Fab (Fab, V domains shown)
VH: EVQLLESGGGLVQPGGSLRLSCAASGFTFSWYNMWWVRQAPGKGLEWVSYIYPSGGNTGYADSVKGRFTISRDNSKNTLYLQMNSLRAEDTAVYYCAVFEYSSSGPQGYWGQGTLVTVSS
VL: QSALTQPPSVSVAPGQTARITCGGNNIGTKSVHWYQQKSGQAPVLVVYDNSDRPSGIPERFSGSNSGNTATLTISRVEAGDEADYYCQVWDNSIDHVVFGGGTKLTVL
B13: 539B-M0007-H06 (Fab, V domains shown)
VH: EVQLLESGGGLVQPGGSLRLSCAASGFTFSHYWMHWVRQAPGKGLEWVSSISSSGGMTYYADSVKGRFTISRDNSKNTLYLQMNSLRAEDTAVYYCTTADYGYYYGMDVWGQGTTVTVSS
VL: DIQMTQSPGTLSLSSGERATLSCRASQSVSSNYLAWYQQKRGQAPRLLIYGASSRATGVPGRFSGSGSGTDFTLTISRLEPEDFAVYYCQQYGSSPRTFGQGTKLEIK

Assays:
human MMP-12 [1] = target: T1, human MMP-12 (human, UniProt P39900 106-470, limits assumed); assay: BIACORE, coated Fab
T1 construct: also called hMMP-12; huMMP12
T1 sequence (P39900 106-470 limits assumed): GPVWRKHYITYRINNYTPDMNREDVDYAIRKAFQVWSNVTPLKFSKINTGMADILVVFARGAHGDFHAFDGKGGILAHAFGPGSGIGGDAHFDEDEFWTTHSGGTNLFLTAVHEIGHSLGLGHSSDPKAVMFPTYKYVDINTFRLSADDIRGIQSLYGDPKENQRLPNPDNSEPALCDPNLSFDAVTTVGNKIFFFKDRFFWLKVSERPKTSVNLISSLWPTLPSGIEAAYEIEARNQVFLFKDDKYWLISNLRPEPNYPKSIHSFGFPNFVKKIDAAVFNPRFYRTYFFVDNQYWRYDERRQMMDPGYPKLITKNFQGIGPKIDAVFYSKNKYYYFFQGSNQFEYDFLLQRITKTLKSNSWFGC

murine MMP-12 [2] = target: T2, murine MMP-12 (mouse, UniProt P34960 110-473, limits assumed); assay: BIACORE, coated Fab
T2 construct: also called mouse MMP12; mMMP12
T2 sequence (P34960 110-473 limits assumed): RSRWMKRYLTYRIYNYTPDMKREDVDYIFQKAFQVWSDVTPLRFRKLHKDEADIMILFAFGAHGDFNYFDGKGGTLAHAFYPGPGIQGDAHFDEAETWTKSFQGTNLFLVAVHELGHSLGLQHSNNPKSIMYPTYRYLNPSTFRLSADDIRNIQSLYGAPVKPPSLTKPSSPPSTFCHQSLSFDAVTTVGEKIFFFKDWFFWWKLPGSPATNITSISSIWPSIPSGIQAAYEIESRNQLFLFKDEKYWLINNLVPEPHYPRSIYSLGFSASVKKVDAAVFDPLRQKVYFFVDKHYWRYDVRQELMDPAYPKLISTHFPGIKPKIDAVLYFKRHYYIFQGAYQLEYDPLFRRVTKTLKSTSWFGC

human MMP-12 [3] = target: T1, human MMP-12; assay: cell-based or functional assay
murine MMP-12 [4] = target: T2, murine MMP-12; assay: cell-based or functional assay
human MMP-12 [5] = target: T1, human MMP-12; assay: cell-based or functional assay; remark: listed apart in the source

Binder | Kd (human MMP-12 [1]) [nM] | koff (murine MMP-12 [2]) [s⁻¹] | IC50hu (human MMP-12 [3]) [nM] | IC50 m (murine MMP-12 [4]) | % of activity left with 100 nM in assay 04 Oct. 2006 (human MMP-12 [5]) [%]
B1 | 0.171 | 0.0025 | 0.7 | > 10 nM (not printed; inferred) | 
B2 |  |  | 2.4 | < 10 nM (not printed; inferred) | 
B3 | 0.12 | 0.00311 | 0.7 | > 10 nM (not printed; inferred) | 
B4 | 0.62 |  | 0.7 | < 10 nM (not printed; inferred) | 
B5 | 1.58 | 0.00654 | 0.8 | > 10 nM (not printed; inferred) | 
B6 | 0.203 | 0.00025 | 0.7 | < 10 nM (not printed; inferred) | 
B7 | 6.97 |  | 1.6 | ~10 nM (not printed; inferred) | 
B8 | 1.1 | 0.01 | 0.3 | > 10 nM (not printed; inferred) | 
B9 | 1.03 |  | 0.2 | < 10 nM (not printed; inferred) | 
B10 | 2.19 |  | 0.7 |  | 
B11 | 2.29 | 0.002 | 1 | < 10 nM (not printed; inferred) | 
B12 |  |  |  |  | 12.2
B13 |  |  |  |  | 55.5
